Source: publication PMC5577323, “Oxidant sensor in the cGMP-binding pocket of PKGIα regulates nitroxyl-mediated kinase activity” (Scientific Reports, 2017)

Target: the molecule itself
Experiment: cross-linking; interprotein disulfide formed in transfected HEK-293 cells (vehicle, NCA 100 µmol/L 30 min or AS 500 µmol/L 15 min); homogenates in non-reducing Laemmli buffer with 100 mmol/L maleimide, SDS-PAGE, western blot for PKGIα; 150 kDa band lost with 2-mercaptoethanol

B1: cGMP-dependent protein kinase I-alpha (PKGIα), human, wildtype (enzyme, UniProt Q13976 1-671, looked up)
chain: MSELEEDFAKILMLKEERIKELEKRLSEKEEEIQELKRKLHKCQSVLPVPSTHIGPRTTRAQGISAEPQTYRSFHDLRQAFRKFTKSERSKDLIKEAILDNDFMKNLELSQIQEIVDCMYPVEYGKDSCIIKEGDVGSLVYVMEDGKVEVTKEGVKLCTMGPGKVFGELAILYNCTRTATVKTLVNVKLWAIDRQCFQTIMMRTGLIKHTEYMEFLKSVPTFQSLPEEILSKLADVLEETHYENGEYIIRQGARGDTFFIISKGTVNVTREDSPSEDPVFLRTLGKGDWFGEKALQGEDVRTANVIAAEAVTCLVIDRDSFKHLIGGLDDVSNKAYEDAEAKAKYEAEAAFFANLKLSDFNIIDTLGVGGFGRVELVQLKSEESKTFAMKILKKRHIVDTRQQEHIRSEKQIMQGAHSDFIVRLYRTFKDSKYLYMLMEACLGGELWTILRDRGSFEDSTTRFYTACVVEAFAYLHSKGIIYRDLKPENLILDHRGYAKLVDFGFAKKIGFGKKTWTFCGTPEYVAPEIILNKGHDISADYWSLGILMYELLTGSPPFSGPDPMKTYNIILRGIDMIEFPKKIAKNAANLIKKLCRDNPSERLGNLKNGVKDIQKHKWFEGFNWEGLRKGTLTPPIIPSVASPTDTSNFDSFPEDNDEPPPDDNSGWDIDF
modifications: interprotein disulfide at Cys42 (between the two subunits); intradisulfide Cys117-Cys195 after HNO donors
notes: written here as one chain because the row is of the protein with itself; also called WT PKGIα; PKGIα WT; source: HEK-293, transfected (pcDNA3), in cell homogenate
- stoichiometry N: 2
